Source: paper PMC6182170
pKd: −log10 of the molar value.

Legend:
[1] = molecular target: T1, ADR-1 WT (Caenorhabditis elegans) (UniProt Q9U3D6); assay: EMSA; conditions: EMSA: 20 pM dsRNA, 50 mM KCl, 10 mM Tris-HCl pH 8.0, 10% glycerol, 1 mM MgCl2, 0.5 mM DTT, on ice 30 min; native 6% gel, 0.5x TBE, 4 C
T1 sequence: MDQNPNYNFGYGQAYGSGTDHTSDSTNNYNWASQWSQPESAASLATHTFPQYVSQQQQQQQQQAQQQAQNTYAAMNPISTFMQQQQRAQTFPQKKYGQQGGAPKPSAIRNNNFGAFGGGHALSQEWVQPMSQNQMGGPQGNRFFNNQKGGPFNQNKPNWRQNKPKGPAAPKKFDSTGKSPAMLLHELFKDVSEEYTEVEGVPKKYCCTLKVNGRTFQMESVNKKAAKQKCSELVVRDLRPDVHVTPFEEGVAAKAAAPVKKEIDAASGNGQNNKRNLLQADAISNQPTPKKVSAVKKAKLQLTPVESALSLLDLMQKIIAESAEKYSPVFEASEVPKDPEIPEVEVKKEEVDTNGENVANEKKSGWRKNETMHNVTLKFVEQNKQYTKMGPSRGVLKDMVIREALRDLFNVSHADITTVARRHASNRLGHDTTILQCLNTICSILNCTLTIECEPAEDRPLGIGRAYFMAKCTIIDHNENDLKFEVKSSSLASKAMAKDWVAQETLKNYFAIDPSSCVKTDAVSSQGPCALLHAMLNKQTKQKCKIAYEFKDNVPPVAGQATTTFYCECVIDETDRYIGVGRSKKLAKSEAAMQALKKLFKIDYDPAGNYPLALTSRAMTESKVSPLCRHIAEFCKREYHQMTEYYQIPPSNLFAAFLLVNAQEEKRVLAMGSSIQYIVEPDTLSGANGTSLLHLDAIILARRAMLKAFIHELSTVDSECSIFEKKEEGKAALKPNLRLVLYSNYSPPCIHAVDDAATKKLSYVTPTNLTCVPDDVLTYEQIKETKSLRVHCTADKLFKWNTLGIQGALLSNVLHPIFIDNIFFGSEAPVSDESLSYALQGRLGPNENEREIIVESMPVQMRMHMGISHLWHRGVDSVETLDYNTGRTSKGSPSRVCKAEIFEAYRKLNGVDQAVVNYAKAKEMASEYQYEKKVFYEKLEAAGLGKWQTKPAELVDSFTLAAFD

[2] = molecular target: ADR-2 WT (Caenorhabditis elegans) (UniProt Q22618); assay: EMSA; conditions: EMSA: 20 pM dsRNA, 50 mM KCl, 10 mM Tris-HCl pH 8.0, 10% glycerol, 1 mM MgCl2, 0.5 mM DTT, on ice 30 min; native 6% gel, 0.5x TBE, 4 C
Sequence of ADR-2 WT (Caenorhabditis elegans) (Q22618 whole entry): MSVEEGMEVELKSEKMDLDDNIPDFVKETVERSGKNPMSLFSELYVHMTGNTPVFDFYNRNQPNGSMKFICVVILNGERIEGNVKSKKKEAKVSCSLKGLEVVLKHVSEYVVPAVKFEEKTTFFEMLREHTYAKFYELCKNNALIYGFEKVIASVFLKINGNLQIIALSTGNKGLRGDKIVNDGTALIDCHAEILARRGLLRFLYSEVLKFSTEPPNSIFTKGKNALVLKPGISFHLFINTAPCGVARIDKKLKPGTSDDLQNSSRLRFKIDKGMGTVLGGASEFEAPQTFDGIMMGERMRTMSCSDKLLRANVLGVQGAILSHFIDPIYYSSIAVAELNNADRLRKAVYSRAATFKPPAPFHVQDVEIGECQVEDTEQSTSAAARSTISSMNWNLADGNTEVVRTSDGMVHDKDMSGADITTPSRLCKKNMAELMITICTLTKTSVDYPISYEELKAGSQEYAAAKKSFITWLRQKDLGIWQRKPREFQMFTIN

## UUAUUAGGUCGGCAAAUAAUUAUUGACGUGUUUUGCCAAUUAACGAUUUUUUGUAAAUUUUAUAUGUGUCUCUUACAGUAAACCGAGAGUGUAUAAAAGCAUAUGAAUAUCAGUUGCUUUGGUCAUCUGAGUAGUAAUACGAUUCGAAAAAAUCGAAAAGUUUUUUUUCCAAUUUUUUGAGUUAGCCGUGAGAGUUG / CAACUCUUCACAGCUAACUCAAAAAAUCGCGAAAAGCAUUUUUCAAAAAAUUUUUGAUUUUUUAGAUUCUUAAUACUACGCAGGUAGCCAAAGUAGCUGAUAUUUUUAUGUUUUCAUACAUUCACAUUUUACUAUAAGACACACAUACAAAAUUUACAAAAAUUGUUAAUUGACAAAAUACGUCAAUAAUUAUUUGUCUACCUAAUAA [lam-2 3'UTR 200 bp dsRNA]
[1]
  pKd: 9.37
[2]
  pKd: 7.12
